Here are results for 10 molecules from patent US11015206B2, “Compositions and methods comprising sequences having hydroxyphenylpyruvate dioxygenase (HPPD) activity” (PIONEER HI-BRED INTERNATIONAL, INC., priority 2014, dated 2021).

Holding throughout (assay type): biochemical, Z. mays
For series [1], the system named is 4-hydroxyphenylpyruvate dioxygenase (HPPD). As to the kind of experiment: ON rate ratio: HPPD reaction rate with vs without inhibitor in the 70 to 90 second interval. The following applies: Table 7; tembotrione; combinatorial variants. An excerpt: (§1) Higher KD (reduced affinity or increased insensitivity) can be attained with a numerically smaller ON rate, a larger OFF rate or both. To detect and quantify changes in kON and kOFF, observations of the time course of an HPPD reaction as inhibitor binds to and inactivates the enzyme (kON), or is released from a pre-formed enzyme-inhibitor complex (kOFF) were used, as shown in FIGS. 13A and 13B. In practice, a quantitative indicator of kON was obtained by monitoring the time courses of HPPD reactions containing 60 or 120 nM HPPD and 100 μM HPP in the presence and absence of 4 μM inhibitor (e.g., mesotrione or tembotrione). The ratio of the reaction rate with inhibitor to that without inhibitor during the 70 to 90 second interval of the reaction was termed the “ON rate ratio”. The smaller the actual kON, the more slowly the HPPD reaction decelerates and the higher the value is for the ON rate ratio. FIGS. 13A and 13B illustrate the contrasting reaction velocity in the 70-90 sec interval for maize wild-type HPPD (FIG. 13A) versus an improved variant (SEQ ID NO:78) (FIG. 13B).

Series [2] has the same test system. As to the kind of experiment: OFF rate ratio: release of inhibitor from pre-formed enzyme-inhibitor complex. The following applies: Table 7; tembotrione; combinatorial variants. The procedure:
A quantitative indicator of kOFF can be obtained by observing the time course of an HPPD reaction as inhibitor is released from a pre-formed enzyme-inhibitor complex. HPPD and inhibitor were incubated together at concentrations of 7.2 and 8 μM, respectively. Incubations with the same concentrations of enzyme but no inhibitor were done in parallel. After 1 hr at room temperature, 5 to 10 μl of the enzyme-inhibitor complex was dispensed into the wells of the assay plate. Reactions were started with the addition of 290 to 295 μl of 25 mM Hepes, pH 7, 2 mM ascorbate, 10 μM FeSO4, 100 μM HPP and 50 nM HGD. The reactions were monitored at 320 nm for 12 min. Reaction velocity accelerates as inhibitor is released from the enzyme until a steady state is reached, during which the reaction velocity is constant. The ratio of the steady state rate in mixtures containing herbicidal inhibitor to the initial velocity of mixtures lacking inhibitor is termed the “OFF rate ratio”.
Another parameter to record is the time span required for the reactions with inhibitor to reach the steady state. FIGS. 13C and 13D illustrate the contrasting time span in which maize wild-type HPPD (FIG. 13C) and an improved variant (SEQ ID NO:78) (FIG. 13D) dissociated from mesotrione, as indicated by the accelerating reaction rates. The plateau of absorbance is due to exhaustion of the substrate. With the improved variant, not only was the steady state attained in a shorter time span (80 sec for the variant versus 280 sec for wild type), the velocity attained was twice as high as with wild type, though the enzymes were present at the same concentration (240 nM). This is because a larger fraction of the variant enzyme is free of inhibitor compared to the wild-type enzyme, and the kcat for both is nearly the same, about 220 min^−1.

Series [3] has the same test system. As to the kind of experiment: Insensitivity parameter (ON × OFF) and trait fitness (ON × OFF × kcat/KM or × kcat). Set-up: key to ON × OFF / Insensitivity, mesotrione, ON × OFF / Insensitivity, tembotrione, ON × OFF / Insensitivity, topramezone, ON × OFF / Insensitivity, sulcotrione, ON × OFF / Insensitivity, isoxaflutole (DKN), ON × OFF: insensitivity = ON rate ratio × OFF rate ratio (surrogate for KD). An excerpt: Because substrate and inhibitors bind in the same site, the high concentration of substrate present may competitively trap the inhibitor and prevent it from binding again. To be sure that improvement in ON rates is being taken into account, the ON and OFF rate ratios were multiplied, creating an “insensitivity parameter” that is a surrogate for KD. KD is expressed as kOFF/kON, but because the ON rate ratio is an inverse parameter (the higher the value of ON rate ratio, the lower the value of the represented phenomenon, kON), it is appropriate to multiply ON and OFF rate ratios rather then divide OFF rate ratio by ON rate ratio. Another parameter, which quantifies the combined catalytic and insensitivity properties of the enzyme is kcat/KM×ON rate ratio×OFF rate ratio, and is termed “trait fitness”. This parameter is intended to have a meaning similar to the commonly used expression kcat/KM×Ki.

The test system is the same in series [4]. Nature of the series: Estimate of kcat from initial rate at saturating hydroxyphenylpyruvate without inhibitor (ON rate ratio assay).
Excerpt: as §1
Thirty nine variants were desensitized to tembotrione compared with the backbone enzyme, Round 7, variant 9070 (SEQ ID NO:2) and all were desensitized compared with maize wild type HPPD (SEQ ID NO:1). Because the assay for ON rate ratio includes an initial rate measurement at saturating hydroxyphenylpyruvate without inhibitor and with known enzyme concentration, an estimate of kcat was available. Taking into account kcat and insensitivity parameters, 30 variants were selected for measurement of substrate saturation kinetic parameters and re-evaluation of insensitivity to tembotrione. The kinetic and insensitivity parameters were determined as described in Example 1, and were multiplied to generate the “trait fitness” parameter. The complete list of variants, i.e., of selected single substitutions in SEQ ID NO:2, analyzed with multiple inhibitors and the results obtained are shown in Table 6. The same set of 30 variants were evaluated for insensitivity to mesotrione, sulcotrione, isoxaflutole (its active diketonitrile form, abbreviated DKN in Table 6) and topramezone.

The mark [5] stands for this setting: Table 7, tembotrione, combinatorial variants.
The mark [6] stands for this setting: Table 7, combinatorial variants.

A word on the kcat: it is the maximal rate divided by the concentration of active sites.

Residue numbers refer to the chain shown, from its start.

B1: P056028-F-01 (protein)
chain: MGPTPTATAAGAAVAAASAAEQAAFRLVGHRNFVRFNPRSDRFQTLAFHHVELWCADAASAAGRFSFALGVPLAARSDLSTGNSAHASLLLRSGSLSLLFTAPYAHGADAATAALPSFSAAAARRFAADHGLAVRAVALRVADAEDAFRASVAAGARPAFGPVDLGRGFRLAEVELYGDVVLRYVSYPDGGAGEPFLPGFEGVASPGAADYGLSRFDHIVGNVPELAPAAAYMAGFTGFHEFAEFTTEDVGTTESGLNSMALANNSENVLLPLNEPVHGTKRRSQIQTFLDHHGGPGVQHIALASDDVLRTLREMRARSAMGGFEFLPPPLSDYYDGVRRCAGDVLTEAQINECQELGVMVDRDDEGVLLQIFTKPVGDRPTFFLEIIQRIGCMEKDEKGQEYQKGGCGGFGKGNFGQLFRSIEDYEKSLEAKRAAAAATAQGS
modifications: Zea mays variant form created by artificial means.
On to B1, for which the ON rate ratio in series [1] was determined as 0.718. For the same molecule, the OFF rate ratio in series [2] amounted to 0.304. In addition, the “ON × OFF” value worked out at 0.218 in series [3] (Megatable 3, shuffled variants) and 0.218 in series [3] (setting [5]). The “ON × OFF × kcat” value was 6.82 in series [3] (Megatable 3, shuffled variants) and 6.82 in series [3] (setting [5]). The kcat in series [4] (Megatable 3, shuffled variants) is 0.522 s⁻¹; in series [4] (setting [6]) it was 0.522 s⁻¹.

B2: P056028-A-04 (protein)
chain: B1 chain with G191A, E356R, L385I, R421K, R434Q
modifications: Zea mays variant form created by artificial means.
Turning to B2, in series [1], the ON rate ratio came to 0.724. Also, the OFF rate ratio in series [2] is 0.133. In addition, the “ON × OFF” value in series [3] (Megatable 3, shuffled variants) came out at 0.096; in series [3] (setting [5]), 0.096. The “ON × OFF × kcat” value was determined as 1.06 in series [3] (Megatable 3, shuffled variants) and 1.06 in series [3] (setting [5]). Besides, the kcat in series [4] (Megatable 3, shuffled variants) was 0.185 s⁻¹; in series [4] (setting [6]), 0.185 s⁻¹.

B3: P056028-D-08 (protein)
chain: B1 chain with R340K, R421K
modifications: Zea mays variant form created by artificial means.
Turning to B3, in series [1], the ON rate ratio is 0.681. Also, in series [2], the OFF rate ratio is 0.361. The “ON × OFF” value in series [3] (Megatable 3, shuffled variants) was determined as 0.246; in series [3] (setting [5]), 0.246. For the same molecule, the “ON × OFF × kcat” value amounted to 6.77 in series [3] (Megatable 3, shuffled variants) and 6.77 in series [3] (setting [5]). In addition, the kcat was 0.458 s⁻¹ in series [4] (Megatable 3, shuffled variants) and 0.458 s⁻¹ in series [4] (setting [6]).

B4: P056028-A-11 (protein)
chain: B1 chain with G191A, G417S, R421K, R434Q
modifications: Zea mays variant form created by artificial means.
Consider B4, for which the ON rate ratio in series [1] is recorded as 0.706. Further, in series [2], the OFF rate ratio amounted to 0.366. Further, the “ON × OFF” value is 0.258 in series [3] (Megatable 3, shuffled variants) and 0.258 in series [3] (setting [5]). Besides, the “ON × OFF × kcat” value is recorded as 2.21 in series [3] (Megatable 3, shuffled variants) and 2.21 in series [3] (setting [5]). For the same molecule, the kcat is 0.143 s⁻¹ in series [4] (Megatable 3, shuffled variants) and 0.143 s⁻¹ in series [4] (setting [6]).

B5: P056028-C-05 (protein)
chain: B1 chain with G191A, R340K, E356R, R421K, R434Q
modifications: Zea mays variant form created by artificial means.
Turning to B5, the ON rate ratio in series [1] is 0.715. Further, the OFF rate ratio in series [2] was determined as 0.375. The “ON × OFF” value in series [3] (Megatable 3, shuffled variants) was 0.268; in series [3] (setting [5]) it was 0.268. The “ON × OFF × kcat” value in series [3] (Megatable 3, shuffled variants) was 5.80; in series [3] (setting [5]), 5.80. Besides, the kcat in series [4] (Megatable 3, shuffled variants) was 0.362 s⁻¹; in series [4] (setting [6]) it was 0.362 s⁻¹.

B6: P056028-A-10 (protein)
chain: B1 chain with G191A, P206Q, Y211L, E356K, R421K, R434Q
modifications: Zea mays variant form created by artificial means.
On to B6, for which the ON rate ratio in series [1] is reported as 0.707. The OFF rate ratio in series [2] was 0.367. The “ON × OFF” value in series [3] (Megatable 3, shuffled variants) was determined as 0.260; in series [3] (setting [5]), 0.260. Further, the “ON × OFF × kcat” value is on record as 4.35 in series [3] (Megatable 3, shuffled variants) and 4.35 in series [3] (setting [5]). In addition, the kcat in series [4] (Megatable 3, shuffled variants) was 0.28 s⁻¹; in series [4] (setting [6]), 0.28 s⁻¹.

B7: P056028-E-02 (protein)
chain: B1 chain with G191A, P206S, R421K, R434Q
modifications: Zea mays variant form created by artificial means.
Regarding B7, the ON rate ratio in series [1] was 0.761. For the same molecule, in series [2], the OFF rate ratio was 0.326. In addition, the “ON × OFF” value worked out at 0.248 in series [3] (Megatable 3, shuffled variants) and 0.248 in series [3] (setting [5]). The “ON × OFF × kcat” value in series [3] (Megatable 3, shuffled variants) stood at 5.86; in series [3] (setting [5]), 5.86. Also, the kcat in series [4] (Megatable 3, shuffled variants) was 0.393 s⁻¹; in series [4] (setting [6]), 0.393 s⁻¹.

B8: P056028-A-08 (protein)
chain: B1 chain with L182M, G191A, P206Q, H278R, R340K, R421K, R434Q, A438T
modifications: Zea mays variant form created by artificial means.
On to B8, for which, in series [1], the ON rate ratio is listed as 0.669. Besides, the OFF rate ratio in series [2] stood at 0.324. The “ON × OFF” value in series [3] (Megatable 3, shuffled variants) was 0.217; in series [3] (setting [5]), 0.217. The “ON × OFF × kcat” value in series [3] (Megatable 3, shuffled variants) is 5.68; in series [3] (setting [5]) it was 5.68. Also, the kcat was 0.437 s⁻¹ in series [4] (Megatable 3, shuffled variants) and 0.437 s⁻¹ in series [4] (setting [6]).

B9: P056028-C-01 (protein)
chain: B1 chain with G191A, P206S, Y211L, R421K, R434Q
modifications: Zea mays variant form created by artificial means.
With B9, the ON rate ratio in series [1] was found to be 0.742. In addition, in series [2], the OFF rate ratio amounted to 0.310. The “ON × OFF” value in series [3] (Megatable 3, shuffled variants) is given as 0.230; in series [3] (setting [5]), 0.230. Moreover, the “ON × OFF × kcat” value in series [3] (Megatable 3, shuffled variants) is given as 5.95; in series [3] (setting [5]), 5.95. The kcat in series [4] (Megatable 3, shuffled variants) is 0.432 s⁻¹; in series [4] (setting [6]), 0.432 s⁻¹.

B10: P056028-C-07 (protein)
chain: B1 chain with R340K, E356R, R421K
modifications: Zea mays variant form created by artificial means.
On to B10, for which the ON rate ratio in series [1] is 0.714. In addition, the OFF rate ratio in series [2] was determined as 0.382. In addition, the “ON × OFF” value in series [3] (Megatable 3, shuffled variants) was 0.273; in series [3] (setting [5]), 0.273. The “ON × OFF × kcat” value is recorded as 5.80 in series [3] (Megatable 3, shuffled variants) and 5.80 in series [3] (setting [5]). In addition, the kcat in series [4] (Megatable 3, shuffled variants) is 0.353 s⁻¹; in series [4] (setting [6]) it was 0.353 s⁻¹.
